Laboratory results from patent US20240409629A1 (CHIA TAI TIANQING PHARMACEUTICAL GROUP, published 2024).
Changes are numbered by the printed parent chain. Where two headings read alike, the source gives them in different places.

B1: humanized antibody hz28G3-1.1 (antibody, human IgG1, kappa, V domains shown)
VH: QVQLVQSGAEVKKPGASVKVSCKTSGYSFTDYLMLWVRQAPGQGLEWMGNINPYYGRTTYALKFKGRVTMTVDRSTSTVYMELSSLRSEDTAVYYCARDGYSLRNAMDYWGQGTLVTVSS
VL: DIVMTQSPDSLAVSLGERATINCKSSQSLFNSGNQKNYLAWYQQKPGQPPKLLIYGASTRESGVPDRFSGSGSGTDFTLTISSLQAEDVAVYYCQNAHSYPYTFGQGTKVEIKR
B2: 15F9 (antibody, human IgG1, kappa, V domains shown)
VH: QVQLVQSGSELKKPGASVKVSCKASGYTFTNYGINWVRQAPGQGLEWMGWINPNTGETTYAEEFKGRFVFSLDTSVSTAYLQISSLKAEDTAVYFCARLYYGNRFDSWGQGTLVTVSS
VL: B1 VL with F30L, K36R, A40T, G56W, H98Y, S99Y, Y102L, Q106G
B3: humanized antibody hz28G3-1.3 (antibody, human IgG1, kappa, V domains shown)
VH: B1 VH with P41H, G44S
VL: B1 VL
B4: humanized antibody hz40F6-1.4 (antibody, human IgG1, kappa, V domains shown)
VH: QVQLVESGGGVVQPGRSLRLSCTVSGFTLTSYGVYWVRQAPGKGLEWVAVVWAGGNTNYNSALKGRFTISKDNSKSTLYLQMNSLRAEDTAVYYCARDRGRLLAMDYWGQGTLVTVSS
VL: B1 VL with F30L, S69T, A97D, S99F, Y100F, Y102F
B5: chimeric antibody xi22F12 (antibody, human IgG1, kappa, V domains shown)
VH: QVQLKESGPGLVAPSQSLSITCTVSGFSLTSYGVYWVRQPPGKGLEWLGVIWAGGSTNYNSALMSRLSINKDNSKSQVFLKMNSLQTDDTAMYYCARDRGRLLSMDYWGQGTSVTVSS
VL: DIVMTQSPSSLSVSAGEKVTMSCRSSQSLLNSGNQKNYLAWYQQKPGQPPKLLIYGASTRESGVPDRFTGSGSGTDFTLTIGSVQAEDLAVYYCQNVHFFPFTFGSGTKLEIKR
notes: Mouse variable regions on human IgG1/kappa; defucosylated, expressed in FUT8-knockout CHO-S cells; also called chimeric 22F12
B6: chimeric antibody xi10D8 (antibody, human IgG1, kappa, V domains shown)
VH: QIQLAQSGPELKKPGETVKVSCKASGYTFKNYGMNWVKQAPGKGLKWMGWININTGEPRYAEEFKGRIAFSLETSASTAYLLINNLKNEDTATYFCARYGYGNSFPYWGQGTLVTVSA
VL: DIVMTQSPSSLTVTVGEKVTMSCKSSQSLLNSGNQRNYLTWYQQKPGQPPKLLIYWASTRESGVPDRFTGSGSGTAFTLTVSSVQAEDLAVYYCQNDYSYPLTFGAGTKLEMKR
notes: Mouse variable regions on human IgG1/kappa; defucosylated, expressed in FUT8-knockout CHO-S cells; also called chimeric 10D8

Experiments:
[1] = molecular target: human CLDN18.2 (human); test: cell-based or functional assay
[2] = molecular target: human CLDN18.2 (human); test: cell-based or functional assay; remark: listed apart in the source
[3] = molecular target: T1, human CLDN18.2 (human); test: FACS, NUGC-4 cells (natural CLDN18.2)
T1 construct: also called claudin18.2
Procedure: (§1) Based on the FACS method, the binding activity of anti-CLDN18.2 humanized antibodies for the cell lines KATOIII (Cell Bank of the Chinese Academy of Sciences) and NUGC-4 (Cell Bank of the Chinese Academy of Sciences) naturally expressing CLDN18.2 was analyzed. […] See Example 3 for the specific method.

[4] = molecular target: T1, human CLDN18.2; test: cell-based or functional assay; remark: listed apart in the source
[5] = molecular target: T1, human CLDN18.2; test: FACS, KATOIII cells (natural CLDN18.2)
Procedure: as §1

[6] = molecular target: T1, human CLDN18.2; test: cell-based or functional assay; remark: listed apart in the source
[7] = molecular target: T1, human CLDN18.2; test: FACS, NUGC-4 cells (natural CLDN18.2); remark: listed apart in the source
Procedure: as §1

[8] = molecular target: T1, human CLDN18.2; test: FACS, KATOIII cells (natural CLDN18.2); remark: listed apart in the source
Procedure: as §1

[9] = molecular target: T1, human CLDN18.2; test: cell-based or functional assay; remark: listed apart in the source
[10] = molecular target: T1, human CLDN18.2; test: cell-based or functional assay; remark: listed apart in the source
[11] = molecular target: T1, human CLDN18.2; test: FACS, KATOIII cells (natural CLDN18.2); remark: listed apart in the source
Procedure: (§2) Based on the FACS method, the binding activity of anti-CLDN18.2 antibodies for the cell line U2OS-CLDN18.2 overexpressing CLDN18.2 and the cell lines KATOIII (Cell Bank of the Chinese Academy of Sciences) and NUGC-4 (Cell Bank of the Chinese Academy of Sciences) naturally expressing CLDN18.2 was analyzed.
(§3) The cell concentration was adjusted with PBS, and cells (U2OS-CLDN18.2, KATOIII, or NUGC-4 cells) were added to a 96-well plate at 3×10⁵ cells/well, then the test antibodies at different concentrations were added to each well of the 96-well plate, and the mixture was incubated at 4° C. for 60 min. […] The supernatant was discarded, the cells were washed 3 times with pre-cooled PBS buffer, PE-Goat Anti-Human IgG Fcγ (Jackson immunoresearch, Cat. No. 109-116-170) diluted at 1:200 was added at 100 μL/well, and the mixture was incubated at 4° C. for 30 min. Cells were washed 3 times with pre-cooled PBS buffer and resuspended in 100 μL of PBS buffer, and then the fluorescence signals were detected using a flow cytometer (Sartorius, iQUE3). The binding ability of the anti-CLDN18.2 antibodies for CLDN18.2 was measured by mean fluorescence intensity (MFI) of staining.

[12] = molecular target: T2, human CLDN18.1 (human, UniProt P56856 1-261); test: FACS, U2OS-CLDN18.1 cells, antibody at 200 nM
T2 construct: also called claudin18.1
Procedure: (§4) Based on the FACS method, the binding activity of anti-CLDN18.2 antibodies for the cell line U2OS-CLDN18.1 overexpressing CLDN18.1 (SEQ ID NO: 2) was analyzed. The cell concentration was adjusted with PBS, and the U2OS-CLDN18.1 cells were added to a 96-well plate at 3×10⁵ cells/well, then the test antibodies were added to each well of the 96-well plate, the final concentration of the antibody was 200 nM, and the mixture was incubated at 4° C. for 60 min. The supernatant was discarded, the cells were washed 3 times with pre-cooled PBS buffer, PE-Goat Anti-Human IgG Fcγ (Jackson immunoresearch, Cat. No. 109-116-170) diluted at 1:200 was added at 100 μL/well, and the mixture was incubated at 4° C. for 30 min. Cells were washed 3 times with pre-cooled PBS buffer and resuspended in 100 μL of PBS buffer, and then the fluorescence signals were detected using a flow cytometer (Sartorius, iQUE3). The nonspecific binding of the anti-CLDN18.2 antibodies for U2OS-CLDN18.1 cells was measured by mean fluorescence intensity (MFI) of staining. The IgG1 isotype control antibody (prepared in-house, with the heavy and light chain amino acid sequences as set forth in SEQ ID NOs: 67 and 68 in the present disclosure) was used as the control, and 2-fold the IgG1 isotype control antibody was used as the benchmark, thus determining the presence or absence of nonspecific binding.

[13] = molecular target: T2, human CLDN18.1; test: FACS, U2OS-CLDN18.1 cells; MFI against 2-fold the IgG1 isotype control
Procedure: as §4

[14] = molecular target: T1, human CLDN18.2; test: cell-based or functional assay; remark: listed apart in the source
[15] = molecular target: T1, human CLDN18.2; test: FACS, NUGC-4 cells (natural CLDN18.2); remark: listed apart in the source
Procedure: as §2, §3

[16] = molecular target: T1, human CLDN18.2; test: FACS, U2OS-CLDN18.2 cells
Procedure: as §2, §3

[17] = molecular target: T1, human CLDN18.2; test: cell-based or functional assay; remark: listed apart in the source

| Binder | ADCC EC50, PBMC effector cells, KATOIII target cells [1] | ADCC EC50, PBMC effector cells, NIH-3T3-CLDN18.2 target cells [1] | ADCC EC50, PBMC effector cells, NUGC-4 target cells [1] | ADCC Maximum killing (%), PBMC effector cells, KATOIII target cells [1] | ADCC Maximum killing (%), PBMC effector cells, NIH-3T3-CLDN18.2 target cells [1] | ADCC Maximum killing (%), PBMC effector cells, NUGC-4 target cells [1] | ADCC EC50, Jurkat-CD16a v158-NFAT-luciferase effector cells, KATOIII target cells [2] | ADCC EC50, Jurkat-CD16a v158-NFAT-luciferase effector cells, U2OS-CLDN18.2 target cells [2] | EC50 [3] | CDC EC50, NIH-3T3-CLDN18.2 target cells [4] | EC50 [5] | EC50 [11] | MFI [12] | binding result [13] | EC50 [15] | EC50 [16] | CDC EC50, U2OS-CLDN18.2 target cells [17] | further results |
| --- | --- | --- | --- | --- | --- | --- | --- | --- | --- | --- | --- | --- | --- | --- | --- | --- | --- | --- |
| B1 | 0.048 nM | 0.33 nM | 0.07 nM | 11.5% | 28.1% | 4.9% | 0.139 nM | 0.016 nM | 11.1 nM | 0.29 nM | 8.11 nM |  |  |  |  |  |  |  |
| B2 | 0.03 nM | 0.18 nM | 0.3 nM | 10.6% | 22.6% | 4.34% |  |  |  | 0.25 nM |  |  |  |  |  |  |  | ADCC EC50, PBMC effector cells, KATOIII target cells [6]: ~0.0155 nM; ADCC Maximum killing (%), PBMC effector cells, KATOIII target cells [6]: 19.5% |
| B3 | 1.03 nM | 0.51 nM | 4.6 nM | 25.3% | 44.3% | 19% | 0.217 nM | 0.023 nM | 10.5 nM | 0.31 nM | 7.01 nM |  |  |  |  |  |  |  |
| B4 | 0.1 nM | 0.31 nM | 0.12 nM | 13.3% | 24.6% | 2.83% |  |  |  |  |  |  |  |  |  |  |  | EC50 [7]: 10.6 nM; EC50 [8]: 6.44 nM; CDC EC50, NIH-3T3-CLDN18.2 target cells [9]: 0.55 nM; ADCC EC50, Jurkat-CD16a v158-NFAT-luciferase effector cells, NIH-3T3-CLDN18.2 target cells [10]: 0.024 nM; ADCC EC50, Jurkat-CD16a v158-NFAT-luciferase effector cells, NUGC-4 target cells [10]: 0.017 nM |
| B5 |  |  |  |  |  |  |  |  |  |  |  | 3.68 nM | 8940 | no binding (tested: 200 nM) | 20 nM | 25.1 nM | 2.09 nM | ADCC EC50, PBMC effector cells, NUGC-4 target cells [6]: 0.68 nM; ADCC Maximum killing (%), PBMC effector cells, NUGC-4 target cells [6]: 46.1%; ADCC EC50, Jurkat-CD16a v158-NFAT-luciferase effector cells, KATOIII target cells [14]: 0.02 nM; ADCC EC50, Jurkat-CD16a v158-NFAT-luciferase effector cells, NUGC-4 target cells [14]: 0.083 nM; ADCC EC50, Jurkat-CD16a v158-NFAT-luciferase effector cells, U2OS-CLDN18.2 target cells [14]: 0.02 nM; CDC EC50, KATOIII target cells [17]: 0.103 nM |
| B6 |  |  |  |  |  |  |  |  |  |  |  | 13.9 nM | 8030 | no binding (tested: 200 nM) | 512 nM | 19.5 nM | 11.4 nM |  |
